Among the data in article PMC10397247 are interaction score values, retold here.

For one test, the target named is T1, 4H607-bN.
T1 chain: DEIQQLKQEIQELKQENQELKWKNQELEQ
The test is described as follows: two-hybrid library CCNG1.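 Further: natural log of median RNA to DNA barcode read ratio; higher means stronger binding.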

Another test has as its target T2, 4H687-bN.
T2 chain: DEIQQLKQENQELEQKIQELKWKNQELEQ
Put plainly: two-hybrid library CCNG1.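 Further: natural log of median RNA to DNA barcode read ratio; higher means stronger binding.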

The next test addresses T3, 4H717-bN.
T3 chain: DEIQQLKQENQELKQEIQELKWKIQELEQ
Put plainly: two-hybrid library CCNG1.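 Further: natural log of median RNA to DNA barcode read ratio; higher means stronger binding.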

The next test addresses T4, 4H72-bN.
T4 chain: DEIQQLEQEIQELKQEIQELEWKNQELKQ
The test is described as follows: two-hybrid library CCNG1.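 Further: natural log of median RNA to DNA barcode read ratio; higher means stronger binding.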

The next test deals with T5, 4H754-bN.
T5 chain: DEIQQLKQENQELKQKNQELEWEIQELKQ
Put plainly: two-hybrid library CCNG1.

The next test addresses T6, 4H797-bN.
T6 chain: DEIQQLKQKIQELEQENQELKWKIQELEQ
The test is described as follows: two-hybrid library CCNG1.

For the next test, the target named is T7, 4H883-bN.
T7 chain: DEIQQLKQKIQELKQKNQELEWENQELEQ
Put plainly: two-hybrid library CCNG1.

A further test deals with T8, 4H908-bN.
T8 chain: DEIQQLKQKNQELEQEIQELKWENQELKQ
Put plainly: two-hybrid library CCNG1.

The next test concerns the target T9, 4H918-bN.
T9 chain: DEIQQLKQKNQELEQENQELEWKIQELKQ
Put plainly: two-hybrid library CCNG1.

The next test has as its target T10, 4H953-bN.
T10 chain: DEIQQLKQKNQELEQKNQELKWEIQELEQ
Put plainly: two-hybrid library CCNG1.

The target of the next test is T11, 4H967-bN.
T11 chain: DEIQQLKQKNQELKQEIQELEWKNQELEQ
The test is described as follows: two-hybrid library CCNG1.

The target in a further test is T12, P8SHb.
T12 chain: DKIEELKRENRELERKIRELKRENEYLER
The test is described as follows: two-hybrid library CCNG1.

A further test has as its target T13, O6.
T13 chain: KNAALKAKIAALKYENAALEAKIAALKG
Put plainly: two-hybrid library CC0. The following applies: mean of both orientations.

The next test has as its target T14, O7.
T14 chain: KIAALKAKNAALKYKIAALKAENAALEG
The test is described as follows: two-hybrid library CC0. The following applies: mean of both orientations.

The target in another test is T15, O8.
T15 chain: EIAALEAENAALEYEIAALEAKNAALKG
Put plainly: two-hybrid library CC0. The following applies: mean of both orientations.

Another test deals with T16, O9.
T16 chain: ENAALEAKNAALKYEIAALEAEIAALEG
The test is described as follows: two-hybrid library CC0. Conditions: mean of both orientations.

A further test addresses T17, 4H3638-bH.
T17 chain: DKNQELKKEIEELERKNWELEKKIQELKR
The test is described as follows: two-hybrid library CCNG1.

In another test the target is T18, 4H3817-bH.
T18 chain: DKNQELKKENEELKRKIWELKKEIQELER
The test is described as follows: two-hybrid library CCNG1.

In another test the target is T19, 4H3974-bH.
T19 chain: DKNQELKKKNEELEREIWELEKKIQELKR
The test is described as follows: two-hybrid library CCNG1.

The next test has as its target T20, 4H570-bH.
T20 chain: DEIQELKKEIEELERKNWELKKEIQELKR
The test is described as follows: two-hybrid library CCNG1.

The next test concerns the target T21, 4H584-bH.
T21 chain: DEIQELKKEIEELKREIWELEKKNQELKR
The test is described as follows: two-hybrid library CCNG1.

The target in a further test is T22, 4H619-bH.
T22 chain: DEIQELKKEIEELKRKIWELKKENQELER
Put plainly: two-hybrid library CCNG1.

In the next test the target is T23, 4H850-bH.
T23 chain: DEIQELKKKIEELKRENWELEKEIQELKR
The test is described as follows: two-hybrid library CCNG1.

The next test concerns the target T24, 4H906-bH.
T24 chain: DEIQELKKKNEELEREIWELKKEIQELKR
Put plainly: two-hybrid library CCNG1.

The target in a further test is T25, 4H3628-bH.
T25 chain: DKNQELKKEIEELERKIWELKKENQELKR
The test is described as follows: two-hybrid library CCNG1.

Another test addresses T26, 4H3858-bH.
T26 chain: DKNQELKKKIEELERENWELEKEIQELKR
The test is described as follows: two-hybrid library CCNG1.

A further test deals with T27, 4H3926-bH.
T27 chain: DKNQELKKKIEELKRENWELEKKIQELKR
Put plainly: two-hybrid library CCNG1.

In another test the target is T28, 4H591-bH.
T28 chain: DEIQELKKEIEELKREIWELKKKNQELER
The test is described as follows: two-hybrid library CCNG1.

A further test concerns the target T29, 4H626-bH.
T29 chain: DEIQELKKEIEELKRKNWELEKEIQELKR
Put plainly: two-hybrid library CCNG1.

The next test concerns the target T30, P9SHb.
T30 chain: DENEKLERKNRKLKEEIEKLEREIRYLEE
The test is described as follows: two-hybrid library CCNG1.

A further test addresses T31, 4H3613-bH.
T31 chain: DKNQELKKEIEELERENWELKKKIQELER
The test is described as follows: two-hybrid library CCNG1.

The target in the next test is T32, 4H2931-bH.
T32 chain: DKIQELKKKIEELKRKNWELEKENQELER
Put plainly: two-hybrid library CCNG1.

The target in the next test is T33, 4H3041-bH.
T33 chain: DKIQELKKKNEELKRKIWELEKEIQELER
The test is described as follows: two-hybrid library CCNG1.

The next test addresses T34, 4H3297-bH.
T34 chain: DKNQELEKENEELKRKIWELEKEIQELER
The test is described as follows: two-hybrid library CCNG1.

The target in the next test is T35, 4H3364-bH.
T35 chain: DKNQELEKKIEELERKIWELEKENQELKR
The test is described as follows: two-hybrid library CCNG1.

In the next test the target is T36, 4H3381-bH.
T36 chain: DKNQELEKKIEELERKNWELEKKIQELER
Put plainly: two-hybrid library CCNG1.

For another test, the target named is T37, 4H349-bH.
T37 chain: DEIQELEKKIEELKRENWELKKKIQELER
The test is described as follows: two-hybrid library CCNG1.

In a further test the target is T38, 4H56-bH.
T38 chain: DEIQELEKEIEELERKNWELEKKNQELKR
Put plainly: two-hybrid library CCNG1.

Another test has as its target T39, 4H730-bH.
T39 chain: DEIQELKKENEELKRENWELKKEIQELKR
The test is described as follows: two-hybrid library CCNG1.

The target in the next test is T40, 4H796-bH.
T40 chain: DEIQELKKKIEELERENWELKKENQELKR
The test is described as follows: two-hybrid library CCNG1.

In another test the target is T41, 4H949-bH.
T41 chain: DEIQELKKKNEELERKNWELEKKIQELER
Put plainly: two-hybrid library CCNG1.

Turning to DEIQQLKQEIQELKQENQELKWKNQELEQ [4H607-bN], the interaction score with 4H607-bN was 0.145; with 4H687-bN, -1.48; in the test with 4H717-bN, -1.11; in the test with 4H72-bN it was -1.65; in the test with 4H754-bN, -1.32; in the test with 4H797-bN it was -0.52. Moreover, the interaction score was -0.644 with 4H883-bN; -0.294 with 4H908-bN; 0.0461 with 4H918-bN; -1.56 with 4H953-bN; -0.227 with 4H967-bN; -1.61 with P8SHb.

On to KNAALKAKIAALKYENAALEAKIAALKG [O6], for which the interaction score is -2.7 in the test with O6, -2.72 in the test with O7, -1.78 with O8 and -2.41 with O9.

Take DKNQELKKEIEELERKNWELEKKIQELKR [4H3638-bH]: the interaction score is -1.34 with 4H3638-bH; -0.0824 with 4H3817-bH; -0.916 in the test with 4H3974-bH; -0.4 with 4H570-bH; -0.722 with 4H584-bH; -1.47 with 4H619-bH. For the same molecule, the interaction score was 1.04 with 4H850-bH and -0.762 in the test with 4H906-bH.

As to DKNQELKKEIEELERKIWELKKENQELKR [4H3628-bH], the interaction score with 4H3628-bH is 0.896; in the test with 4H3817-bH, 0.965; in the test with 4H3858-bH, 0.42; with 4H3926-bH, 0.588; with 4H3974-bH, 1.22; with 4H570-bH, -1.36. For the same molecule, the interaction score with 4H591-bH is 0.0937; with 4H626-bH, -0.0728; in the test with 4H850-bH, 0.701; in the test with 4H906-bH it was -0.107.

On to DKIEELKRENRELERKIRELKRENEYLER [P8SHb], for which the interaction score is -0.644 with P8SHb and 0.191 with P9SHb.

Turning to DKNQELKKEIEELERENWELKKKIQELER [4H3613-bH], the interaction score was 0.898 in the test with 4H3613-bH; -0.609 in the test with 4H3628-bH; -0.0066 with 4H3817-bH; 0.0148 with 4H3858-bH; 1.59 with 4H3926-bH; -1.15 with 4H3974-bH. The interaction score was -0.821 with 4H570-bH; -2.09 in the test with 4H591-bH; -1.94 with 4H626-bH; 1.37 with 4H850-bH; -1.07 with 4H906-bH.

Turning to DKIQELKKKIEELKRKNWELEKENQELER [4H2931-bH], the interaction score with 4H2931-bH was -0.492; with 4H3041-bH it was -0.279; with 4H3297-bH it was 0.571; in the test with 4H3364-bH, -0.507; with 4H3381-bH, -0.508; with 4H349-bH it was -0.83. The interaction score with 4H56-bH is -0.623; with 4H730-bH it was -0.532; in the test with 4H796-bH, -0.865; with 4H949-bH, -0.384.
